Experimental data: publication PMC6591005 (Immunity, 2019)

Tests used:
Details in all cases: both partners purified
[1] = target: GII.17 Virus like particles (Human norovirus GII.17, GenBank …, UniProt A0A0E3X5I8, strain); assay: ELISA; EIA: plates coated with VLP at 0.25 μg/ml in PBS for 4 h, blocked in 5% dry milk in PBS-0.05% Tween-20; two-fold serial dilutions of mAb at 37°C; anti-human IgG-HRP; less than 0.2 OD at 2 μg/ml scored as negative
[2] = target: T1, GII.4 2015 Virus like particles (Human norovirus GII.P16-GII.4 Sydney …, strain); assay: as above
T1 construct: copies: 180
T1 chain: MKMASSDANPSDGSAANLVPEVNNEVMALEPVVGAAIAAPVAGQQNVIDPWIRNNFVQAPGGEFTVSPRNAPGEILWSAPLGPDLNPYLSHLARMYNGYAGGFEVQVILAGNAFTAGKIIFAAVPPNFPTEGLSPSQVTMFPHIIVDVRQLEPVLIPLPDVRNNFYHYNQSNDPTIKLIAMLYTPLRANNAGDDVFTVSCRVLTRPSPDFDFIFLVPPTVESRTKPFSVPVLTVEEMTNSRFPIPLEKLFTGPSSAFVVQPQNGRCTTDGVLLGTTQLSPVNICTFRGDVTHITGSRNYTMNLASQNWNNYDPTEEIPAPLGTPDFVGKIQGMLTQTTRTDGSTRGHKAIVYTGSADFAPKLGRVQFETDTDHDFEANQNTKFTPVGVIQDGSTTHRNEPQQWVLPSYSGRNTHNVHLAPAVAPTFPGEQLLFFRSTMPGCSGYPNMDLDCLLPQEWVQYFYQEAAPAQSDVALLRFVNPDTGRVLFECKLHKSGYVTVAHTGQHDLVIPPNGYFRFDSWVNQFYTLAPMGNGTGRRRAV

[3] = target: T2, GII.4 2002 Virus like particles (Human norovirus GII.4 2002 Farmington …, UniProt R4I4P2, strain); assay: as above
T2 construct: copies: 180

[4] = target: GII.2 Virus like particles (Human norovirus GII.2 (Snow Mountain …, UniProt Q80RD6, strain)); assay: as above
[5] = target: T3, GII.4 2012 Virus like particles (Human norovirus GII.4 Sydney 2012, …, UniProt K4LM89, strain); assay: as above
T3 construct: copies: 180

[6] = target: T4, GII.4 1997 Virus like particles (Human norovirus GII.4 1997 (US95_96), …, UniProt R4I4R2, strain); assay: as above
T4 construct: copies: 180

[7] = target: T5, GII.4 2006b Virus like particles (Human norovirus GII.4 2006b …, UniProt R4I3T2, strain); assay: as above
T5 construct: copies: 180

GII.4.2002 P domain = GII.4.2002 P domain (Human norovirus GII.4 2002 Farmington …, UniProt R4I4P2, strain); assay: crystal structure
[8] = target: soluble GII.4 P domain from the 2012 pandemic strain (Human norovirus GII.4 Sydney 2012, …, UniProt K4LM89, strain); assay: co-purification of the complex; Fab of A1227 purified in complex with soluble GII.4 P domains, screened for crystallization
[9] = target: soluble GII.4 P domain from the 2009 pandemic strain (Human norovirus GII.4 2009 New Orleans, …, UniProt D3YBZ4, strain); assay: as above
[10] = target: soluble GII.4 P domain from the 2006 pandemic strain (Human norovirus GII.4 2006, taken as …, UniProt R4I3T2, strain); assay: as above

Measured: binding result

B1: A1227 (recombinant IgG1) (antibody, V domains shown)
VH: QVQLVQSGGGMVQPGGSLSLSCAASGFTLSNYAMTWVRQAPGKGLEWVSSIGGSGGTTYYADSVKGRFTISRDSSMNTLYLQMSNLRAGDTAVYYCAKDKTRTLRLGYSGMDVWGQGTTVTVSS
VL: DIRLTQSPSSLSASVGDRVTITCRASQSISSYLNWYQQKPGKAPDLLIYGASSLQSGVPSRFSGSGSGTDFTLTISSLQPEDFGNYYCQQSFSTPRTFGQGTKVELK
not listed: GII.4.2002 P domain | [8] | [9] | [10]
binds: all other assays above

B2: A1431 Fab (Fab, V domains shown)
VH: QVQLVQSGGGLVQPGGSLRLSCAASGFAFSNHGMHWVRQAPGKGLEWLSYISGSTGAIHYANSVKGRFTISRDNARNSLDLQMNSLGDEDTAVYYCARDGPRPDGTGYAGPSNDYWGQGTLVSVSS
VL: EIVLTQSPASLSLSPGERATLSCKASRSISIYLAWYQQKPGQAPRLLIYDASYRAIGIPARFSGSGSGTDFTLTISNLEPEDFAVYYCQHRSSWPALTFGGGTKVEIK
binds: GII.4.2002 P domain

B3: A1227 Fab (Fab, V domains shown)
VH: QVQLVQSGGGMVQPGGSLSLSCAASGFTLSNYAMTWVRQAPGKGLEWVSSIGGSGGTTYYADSVKGRFTISRDSSMNTLYLQMSNLRAGDTAVYYCAKDKTRTLRLGYSGMDVWGQGTTVTVSS
VL: DIRLTQSPSSLSASVGDRVTITCRASQSISSYLNWYQQKPGKAPDLLIYGASSLQSGVPSRFSGSGSGTDFTLTISSLQPEDFGNYYCQQSFSTPRTFGQGTKVELK
notes: also called Fab A1227
binds: [8] | [9] | [10]
